# Experimental data from patent publication US20110301073.
# Experiments:
# [1] = system: TALE test backbone, repeat 5 RVD HD, standard framework (SEQ 333) (Xanthomonas sp. (engineered)); settings: reference
# [2] = system: TALE test backbone, repeat 5 RVD TA (synthetic (Xanthomonas TALE)); settings: ELISA
# [3] = system: TALE test backbone, repeat 5 RVD QG (synthetic (Xanthomonas TALE)); settings: ELISA
# [4] = system: TALE test backbone, repeat 5 RVD IP (synthetic (Xanthomonas TALE)); settings: ELISA
# [5] = system: TALE test backbone, repeat 5 RVD VG (synthetic (Xanthomonas TALE)); settings: ELISA
# [6] = system: TALE test backbone, repeat 5 RVD TP (synthetic (Xanthomonas TALE)); settings: ELISA
# [7] = system: TALE test backbone, repeat 5 RVD DH (synthetic (Xanthomonas TALE)); settings: ELISA
# [8] = system: TALE test backbone, repeat 5 RVD AN (synthetic (Xanthomonas TALE)); settings: ELISA
# [9] = system: TALE test backbone, repeat 5 RVD KG (synthetic (Xanthomonas TALE)); settings: ELISA
# [10] = system: TALE test backbone, repeat 5 RVD HA (synthetic (Xanthomonas TALE)); settings: ELISA
# [11] = system: TALE test backbone, repeat 5 RVD RG (synthetic (Xanthomonas TALE)); settings: ELISA
# [12] = system: TALE test backbone, repeat 5 RVD AE (synthetic (Xanthomonas TALE)); settings: ELISA
# [13] = system: TALE test backbone, repeat 5 RVD KI (synthetic (Xanthomonas TALE)); settings: ELISA
# [14] = system: TALE test backbone, repeat 5 RVD NA (synthetic (Xanthomonas TALE)); settings: ELISA
# [15] = system: TALE test backbone, repeat 5 RVD IA (synthetic (Xanthomonas TALE)); settings: ELISA
# [16] = system: TALE test backbone, repeat 5 RVD RA (synthetic (Xanthomonas TALE)); settings: ELISA
# [17] = system: TALE test backbone, repeat 5 RVD KS (synthetic (Xanthomonas TALE)); settings: ELISA
# [18] = system: TALE test backbone, repeat 5 RVD RI (synthetic (Xanthomonas TALE)); settings: ELISA
# [19] = system: TALE test backbone, repeat 5 RVD IG (synthetic (Xanthomonas TALE)); settings: ELISA
# [20] = system: TALE test backbone, repeat 5 RVD NG (Xanthomonas sp. (engineered)); settings: RVD NG
# [21] = system: TALE test backbone, repeat 5 RVD KD (Xanthomonas sp. (engineered)); settings: RVD KD
# [22] = system: TALE test backbone, repeat 5 RVD DK (synthetic (Xanthomonas TALE)); settings: ELISA
# [23] = system: TALE test backbone, repeat 5 RVD NS (synthetic (Xanthomonas TALE)); settings: ELISA
# [24] = system: TALE test backbone, repeat 5 RVD AT (synthetic (Xanthomonas TALE)); settings: ELISA
# [25] = system: TALE test backbone, repeat 5 RVD HN (synthetic (Xanthomonas TALE)); settings: ELISA
# [26] = system: TALE test backbone, repeat 5 RVD QA (synthetic (Xanthomonas TALE)); settings: ELISA
# [27] = system: TALE test backbone, repeat 5 RVD GG (synthetic (Xanthomonas TALE)); settings: ELISA
# [28] = system: TALE test backbone, repeat 5 RVD AA (synthetic (Xanthomonas TALE)); settings: ELISA
# [29] = system: TALE test backbone, repeat 5 RVD HI (synthetic (Xanthomonas TALE)); settings: ELISA
# [30] = system: TALE test backbone, repeat 5 RVD SN (synthetic (Xanthomonas TALE)); settings: ELISA
# [31] = system: TALE test backbone, repeat 5 RVD KT (synthetic (Xanthomonas TALE)); settings: ELISA
# [32] = system: TALE test backbone, repeat 5 RVD HG (synthetic (Xanthomonas TALE)); settings: ELISA
# [33] = system: TALE test backbone, repeat 5 RVD AD (synthetic (Xanthomonas TALE)); settings: ELISA
# [34] = system: TALE test backbone, repeat 5 RVD SG (synthetic (Xanthomonas TALE)); settings: ELISA
# [35] = system: TALE test backbone, repeat 5 RVD ND (Xanthomonas sp. (engineered)); settings: RVD ND
# [36] = system: TALE test backbone, repeat 5 RVD YG (synthetic (Xanthomonas TALE)); settings: ELISA
# [37] = system: TALE test backbone, repeat 5 RVD LA (synthetic (Xanthomonas TALE)); settings: ELISA
# [38] = system: TALE test backbone, repeat 5 RVD NI (Xanthomonas sp. (engineered)); settings: RVD NI
# [39] = system: TALE test backbone, repeat 5 RVD NN (Xanthomonas sp. (engineered)); settings: RVD NN
# [40] = system: TALE repeat framework Q23W (SEQ 416) repeat 5: Q23W (Xanthomonas sp. (engineered)); settings: average of 3 experiments
# [41] = system: TALE repeat framework T21A/Q23R/R24A (SEQ 423) repeat 5: T21A,Q23R,R24A (Xanthomonas sp. (engineered)); settings: average of 3 experiments
# [42] = system: TALE repeat framework S11A (SEQ 409) repeat 5: S11A (Xanthomonas sp. (engineered)); settings: average of 3 experiments
# [43] = system: TALE repeat framework V7A (SEQ 403) repeat 5: V7A (Xanthomonas sp. (engineered)); settings: average of 3 experiments
# [44] = system: TALE repeat framework T2S/P3T/D4A/T21A/Q23R/R24A (SEQ 425) repeat 5: T2S,P3T,D4A,T21A,Q23R,R24A (Xanthomonas sp. (engineered)); settings: average of 3 experiments
# [45] = system: TALE repeat framework T21A (SEQ 411) repeat 5: T21A (Xanthomonas sp. (engineered)); settings: average of 3 experiments
# [46] = system: TALE repeat framework Q23K (SEQ 415) repeat 5: Q23K (Xanthomonas sp. (engineered)); settings: average of 3 experiments
# [47] = system: TALE repeat framework Q23A (SEQ 413) repeat 5: Q23A (Xanthomonas sp. (engineered)); settings: average of 3 experiments
# [48] = system: TALE repeat framework Q5A (SEQ 75) repeat 5: Q5A (Xanthomonas sp. (engineered)); settings: average of 3 experiments
# [49] = system: TALE repeat framework I9V (SEQ 407) repeat 5: I9V (Xanthomonas sp. (engineered)); settings: average of 3 experiments
# [50] = system: TALE repeat framework E20A (SEQ 410) repeat 5: E20A (Xanthomonas sp. (engineered)); settings: average of 3 experiments
sequence,measurement,setting,value
TTGACCATCCT (double strand) [CCA target],binding signal (normalized ELISA),[1],1
same,binding signal (normalized ELISA),[2],0.2
same,binding signal (normalized ELISA),[3],0.11
same,binding signal (normalized ELISA),[4],0.13
same,binding signal (normalized ELISA),[5],0.02
same,binding signal (normalized ELISA),[6],0.2
same,binding signal (normalized ELISA),[7],0.01
same,binding signal (normalized ELISA),[8],0
same,binding signal (normalized ELISA),[9],0.27
same,binding signal (normalized ELISA),[10],0.53
same,binding signal (normalized ELISA),[11],0.26
same,binding signal (normalized ELISA),[12],0
same,binding signal (normalized ELISA),[13],0.11
same,binding signal (normalized ELISA),[14],0.67
same,binding signal (normalized ELISA),[15],0.24
same,binding signal (normalized ELISA),[16],0.89
same,binding signal (normalized ELISA),[17],0.78
same,binding signal (normalized ELISA),[18],0.05
same,binding signal (normalized ELISA),[19],0.02
same,binding signal (normalized ELISA),[20],0.14
same,binding signal (normalized ELISA),[21],0.61
same,binding signal (normalized ELISA),[22],0
same,binding signal (normalized ELISA),[23],0.26
same,binding signal (normalized ELISA),[24],0.58
same,binding signal (normalized ELISA),[25],0
same,binding signal (normalized ELISA),[26],0.19
same,binding signal (normalized ELISA),[27],0.35
same,binding signal (normalized ELISA),[28],0.35
same,binding signal (normalized ELISA),[29],0.1
same,binding signal (normalized ELISA),[30],0.01
same,binding signal (normalized ELISA),[31],0.81
same,binding signal (normalized ELISA),[32],0.11
same,binding signal (normalized ELISA),[33],0.4
same,binding signal (normalized ELISA),[34],0.23
same,binding signal (normalized ELISA),[35],0.73
same,binding signal (normalized ELISA),[36],0.02
same,binding signal (normalized ELISA),[37],0.02
same,binding signal (normalized ELISA),[38],0.04
same,binding signal (normalized ELISA),[39],0
same,binding signal (normalized ELISA),[40],0.88
same,binding signal (normalized ELISA),[41],1.42
same,binding signal (normalized ELISA),[42],0.9
same,binding signal (normalized ELISA),[43],0.26
same,binding signal (normalized ELISA),[44],0
same,binding signal (normalized ELISA),[45],1.05
same,binding signal (normalized ELISA),[46],0.92
same,binding signal (normalized ELISA),[47],0.91
same,binding signal (normalized ELISA),[48],1.03
same,binding signal (normalized ELISA),[49],0.76
same,binding signal (normalized ELISA),[50],0.82
